Experimental data published in the supplement of paper PMC11246515.
± gives the standard deviation of the averaged measurements.

Test: total protein half-life in vivo (active degradation + dilution); higher = more stable protein
[1] = E. coli NCM3722 delta-clpP delta-lon delta-hslV, growth: N-lim chemostat, doubling time 6 h
[2] = E. coli NCM3722 delta-clpP, growth: N-lim chemostat, doubling time 6 h
[3] = E. coli NCM3722 delta-hslV, growth: N-lim chemostat, doubling time 6 h
[4] = E. coli NCM3722 delta-lon, growth: N-lim chemostat, doubling time 6 h
[5] = E. coli NCM3722 delta-smpB, growth: N-lim chemostat, doubling time 6 h
[6] = wild type E. coli NCM3722, growth: C-lim chemostat, doubling time 3 h
[7] = wild type E. coli NCM3722, growth: C-lim chemostat, doubling time 6 h
[8] = wild type E. coli NCM3722, growth: C-lim chemostat, doubling time 12 h
[9] = wild type E. coli NCM3722, growth: N-lim chemostat, doubling time 6 h
[10] = wild type E. coli NCM3722, growth: N-lim chemostat, doubling time 12 h
[11] = wild type E. coli NCM3722, growth: P-lim chemostat, doubling time 6 h
[12] = wild type E. coli NCM3722, growth: P-lim chemostat, doubling time 12 h

| Sequence | total protein half-life in vivo [1] [h] | total protein half-life in vivo [2] [h] | total protein half-life in vivo [3] [h] | total protein half-life in vivo [4] [h] | total protein half-life in vivo [5] [h] | total protein half-life in vivo [6] [h] | total protein half-life in vivo [7] [h] | total protein half-life in vivo [8] [h] | total protein half-life in vivo [9] [h] | total protein half-life in vivo [10] [h] | total protein half-life in vivo [11] [h] | total protein half-life in vivo [12] [h] |
| --- | --- | --- | --- | --- | --- | --- | --- | --- | --- | --- | --- | --- |
| MTDHTMKKNPVSIPHTVWYADDIRRGEREAADVLGLTLYELMLRAGEAAFQVCRSAYPDARHWLVLCGHGNNGGDGYVVARLAKAVGIEVTLLAQESDKPLPEEAALAREAWLNAGGEIHASNIVWPESVDLIVDALLGTGLRQAPRESISQLIDHANSHPAPIVAVDIPSGLLAETGATPGAVINADHTITFIALKPGLLTGKARDVTGQLHFDSLGLDSWLAGQETKIQRFSAEQLSHWLKPRRPTSHKGDHGRLVIIGGDHGTAGAIRMTGEAALRAGAGLVRVLTRSENIAPLLTARPELMVHELTMDSLTESLEWADVVVIGPGLGQQEWGKKALQKVENFRKPMLWDADALNLLAINPDKRHNRVITPHPGEAARLLGCSVAEIESDRLHCAKRLVQRYGGVAVLKGAGTVVAAHPDALGIIDAGNAGMASGGMGDVLSGIIGALLGQKLSPYDAACAGCVAHGAAADVLAARFGTRGMLATDLFSTLQRIVNPEVTDKNHDESSNSAP | 5.24 ± 0.42 | 4.62 ± 0.52 | 4.91 ± 0.3 | 5.56 ± 0.66 | 4.42 ± 0.3 | 3.2 ± 0.32 | 6.53 ± 1.6 | 10.1 ± 3.4 | 4.25 ± 0.34 | 8.83 ± 1.5 | 5.62 ± 0.14 | 11.3 ± 0.24 |
| MTDKLTSLRQYTTVVADTGDIAAMKLYQPQDATTNPSLILNAAQIPEYRKLIDDAVAWAKQQSNDRAQQIVDATDKLAVNIGLEILKLVPGRISTEVDARLSYDTEASIAKAKRLIKLYNDAGISNDRILIKLASTWQGIRAAEQLEKEGINCNLTLLFSFAQARACAEAGVFLISPFVGRILDWYKANTDKKEYAPAEDPGVVSVSEIYQYYKEHGYETVVMGASFRNIGEILELAGCDRLTIAPALLKELAESEGAIERKLSYTGEVKARPARITESEFLWQHNQDPMAVDKLAEGIRKFAIDQEKLEKMIGDLL [P0A870] | 5.35 ± 0.57 | 5.12 ± 0.34 | 5.35 ± 0.39 | 5.6 ± 0.23 | 5.04 ± 0.11 | 3.448 ± 0.0017 | 5.81 ± 0.19 | 11.1 ± 1.2 | 5.14 ± 0.23 | 9.23 ± 0.13 | 6.18 ± 0.083 | 13.7 ± 0.78 |
| MTDLPDSTRWQLWIVAFGFFMQSLDTTIVNTALPSMAQSLGESPLHMHMVIVSYVLTVAVMLPASGWLADKVGVRNIFFTAIVLFTLGSLFCALSGTLNELLLARALQGVGGAMMVPVGRLTVMKIVPREQYMAAMTFVTLPGQVGPLLGPALGGLLVEYASWHWIFLINIPVGIIGAIATLLLMPNYTMQTRRFDLSGFLLLAVGMAVLTLALDGSKGTGLSPLTIAGLVAVGVVALVLYLLHARNNNRALFSLKLFRTRTFSLGLAGSFAGRIGSGMLPFMTPVFLQIGLGFSPFHAGLMMIPMVLGSMGMKRIVVQVVNRFGYRRVLVATTLGLSLVTLLFMTTALLGWYYVLPFVLFLQGMVNSTRFSSMNTLTLKDLPDNLASSGNSLLSMIMQLSMSIGVTIAGLLLGLFGSQHVSVDSGTTQTVFMYTWLSMALIIALPAFIFARVPNDTHQNVAISRRKRSAQ |  |  |  |  |  |  |  |  |  |  |  | 15.7 |
| MTDNNTALKKAGLKVTLPRLKILEVLQEPDNHHVSAEDLYKRLIDMGEEIGLATVYRVLNQFDDAGIVTRHNFEGGKSVFELTQQHHHDHLICLDCGKVIEFSDDSIEARQREIAAKHGIRLTNHSLYLYGHCAEGDCREDEHAHEGK [P0A9A9] | 6.49 ± 0.92 | 5.31 ± 0.6 | 4.58 ± 1.7 | 6.38 ± 0.37 | 3.6 ± 0.55 | 2.35 ± 0.2 | 4.31 ± 0.14 | 8.38 ± 1.9 | 4.58 ± 0.81 | 11.3 ± 3.6 | 5.27 ± 0.16 | 11.5 ± 1.6 |
| MTDYAISKKSKRSLWIPILVFITLAACASAGYSYWHSHQVAADDKAQQRVVPSPVFYALDTFTVNLGDADRVLYIGITLRLKDEATRSRLSEYLPEVRSRLLLLFSRQDAAVLATEEGKKNLIAEIKTTLSTPLVAGQPKQDVTDVLYTAFILR [P0ABX8] |  |  |  |  |  | 1.72 ± 0.4 | 2.16 ± 0.27 | 3 ± 0.22 |  |  |  |  |
| MTEAMKITLSTQPADARWGEKATYSINNDGITLHLNGADDLGLIQRAARKIDGLGIKHVQLSGEGWDADRCWAFWQGYKAPKGTRKVVWPDLDDAQRQELDNRLMIIDWVRDTINAPAEELGPSQLAQRAVDLISNVAGDRVTYRITKGEDLREQGYMGLHTVGRGSERSPVLLALDYNPTGDKEAPVYACLVGKGITFDSGGYSIKQTAFMDSMKSDMGGAATVTGALAFAITRGLNKRVKLFLCCADNLISGNAFKLGDIITYRNGKKVEVMNTDAEGRLVLADGLIDASAQKPEMIIDAATLTGAAKTALGNDYHALFSFDDALAGRLLASAAQENEPFWRLPLAEFHRSQLPSNFAELNNTGSAAYPAGASTAAGFLSHFVENYQQGWLHIDCSATYRKAPVEQWSAGATGLGVRTIANLLTA | 5.81 ± 0.29 | 5.46 ± 0.11 | 5.706 ± 0.054 | 5.758 ± 0.022 | 5.22 ± 0.19 | 3.45 ± 0.34 | 6.53 ± 0.15 | 10.4 ± 0.37 | 5.61 ± 0.15 | 10.4 ± 1.1 | 5.543 ± 0.044 | 12.5 ± 0.4 |
| MTEAQRHQILLEMLAQLGFVTVEKVVERLGISPATARRDINKLDESGKLKKVRNGAEAITQQRPRWTPMNLHQAQNHDEKVRIAKAASQLVNPGESVVINCGSTAFLLGREMCGKPVQIITNYLPLANYLIDQEHDSVIIMGGQYNKSQSITLSPQGSENSLYAGHWMFTSGKGLTAEGLYKTDMLTAMAEQKMLSVVGKLVVLVDSSKIGERAGMLFSRADQIDMLITGKNANPEILQQLEAQGVSILRV [P0A9W0] | 5.74 ± 0.06 | 5.84 ± 0.28 | 6.01 ± 0.41 | 5.66 ± 0.8 | 5.95 ± 0.36 | 3.08 ± 0.11 | 6 ± 0.48 | 10.6 ± 1.7 | 5.68 ± 0.2 | 10.9 ± 0.72 | 6.75 ± 1.5 | 13.3 ± 0.25 |
| MTEKKYIVALDQGTTSSRAVVMDHDANIISVSQREFEQIYPKPGWVEHDPMEIWATQSSTLVEVLAKADISSDQIAAIGITNQRETTIVWEKETGKPIYNAIVWQCRRTAEICEHLKRDGLEDYIRSNTGLVIDPYFSGTKVKWILDHVEGSRERARRGELLFGTVDTWLIWKMTQGRVHVTDYTNASRTMLFNIHTLDWDDKMLEVLDIPREMLPEVRRSSEVYGQTNIGGKGGTRIPISGIAGDQQAALFGQLCVKEGMAKNTYGTGCFMLMNTGEKAVKSENGLLTTIACGPTGEVNYALEGAVFMAGASIQWLRDEMKLINDAYDSEYFATKVQNTNGVYVVPAFTGLGAPYWDPYARGAIFGLTRGVNANHIIRATLESIAYQTRDVLEAMQADSGIRLHALRVDGGAVANNFLMQFQSDILGTRVERPEVREVTALGAAYLAGLAVGFWQNLDELQEKAVIEREFRPGIETTERNYRYAGWKKAVKRAMAWEEHDE [P0A6F3] |  | 6.74 ± 0.14 | 6.32 ± 0.39 |  | 5.64 ± 0.067 | 3.28 ± 0.085 | 5.398 ± 0.033 | 9.61 ± 1.5 | 5.983 ± 0.059 | 12.7 ± 0.32 | 6.31 ± 0.66 | 13 ± 0.85 |
| MTELAQLQASAEQAAALLKAMSHPKRLLILCMLSGSPGTSAGELTRITGLSASATSQHLARMRDEGLIDSQRDAQRILYSIKNEAVNAIIATLKNVYCP |  |  |  |  |  |  |  |  |  |  |  | 9.02 |
| MTEPHVAVLSQVQQFLDRQHGLYIDGRPGPAQSEKRLAIFDPATGQEIASTADANEADVDNAVMSAWRAFVSRRWAGRLPAERERILLRFADLVEQHSEELAQLETLEQGKSIAISRAFEVGCTLNWMRYTAGLTTKIAGKTLDLSIPLPQGARYQAWTRKEPVGVVAGIVPWNFPLMIGMWKVMPALAAGCSIVIKPSETTPLTMLRVAELASEAGIPDGVFNVVTGSGAVCGAALTSHPHVAKISFTGSTATGKGIARTAADHLTRVTLELGGKNPAIVLKDADPQWVIEGLMTGSFLNQGQVCAASSRIYIEAPLFDTLVSGFEQAVKSLQVGPGMSPVAQINPLVSRAHCDKVCSFLDDAQAQQAELIRGSNGPAGEGYYVAPTLVVNPDAKLRLTREEVFGPVVNLVRVADGEEALQLANDTEYGLTASVWTQNLSQALEYSDRLQAGTVWVNSHTLIDANLPFGGMKQSGTGRDFGPDWLDGWCETKSVCVRY | 4.33 |  |  |  |  | 3.12 ± 0.38 | 5.23 ± 0.96 | 8.67 ± 0.33 |  |  | 5.34 ± 0.17 | 10.3 ± 0.53 |
| MTEPLKPRIDFDGPLEVDQNPKFRAQQTFDENQAQNFAPATLDEAQEEEGQVEAVMDAALRPKRSLWRKMVMGGLALFGASVVGQGVQWTMNAWQTQDWVALGGCAAGALIIGAGVGSVVTEWRRLWRLRQRAHERDEARDLLHSHGTGKGRAFCEKLAQQAGIDQSHPALQRWYASIHETQNDREVVSLYAHLVQPVLDAQARREISRSAAESTLMIAVSPLALVDMAFIAWRNLRLINRIATLYGIELGYYSRLRLFKLVLLNIAFAGASELVREVGMDWMSQDLAARLSTRAAQGIGAGLLTARLGIKAMELCRPLPWIDDDKPRLGDFRRQLIGQVKETLQKGKTPSEK [P0A8R7] | 5.42 ± 0.51 | 5.1 ± 0.24 | 4.51 ± 0.62 | 4.85 ± 0.12 | 4.83 ± 0.29 | 2.96 ± 0.27 | 4.75 ± 0.28 | 11.2 ± 0.13 | 5.23 ± 0.17 | 8.5 ± 0.23 | 5.02 ± 0.48 | 8.52 ± 0.38 |
